Results on one molecule are retold here after publication PMC3496974 (MicrobiologyOpen, 2012).

The series “SEC” concerns the molecule itself. Description: SEC. On the technique in general: Size exclusion chromatography separates by hydrodynamic size, large species first.
Another series deals with T1, PanZ(N45A)-His (E. coli, UniProt P37613 1-127, N45A).
T1 sequence: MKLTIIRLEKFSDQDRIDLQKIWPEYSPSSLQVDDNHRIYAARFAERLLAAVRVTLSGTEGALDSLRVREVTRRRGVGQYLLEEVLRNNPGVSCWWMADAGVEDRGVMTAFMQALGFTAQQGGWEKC
Description: SEC.

B1: PanD, unactivated proenzyme (native, untagged) (enzyme, E. coli, UniProt P0A790 1-126, looked up)
chain: MIRTMLQGKLHRVKVTHADLHYEGSCAIDQDFLDAAGILENEAIDIWNVTNGKRFSTYAIAAERGSRIISVNGAAAHCASVGDIVIIASFVTMPDEEARTWRPNVAYFEGDNEMKRTAKAIPVQVA
As for B1, in the series “SEC”, the “stoichiometry N” value is 4. The binding result with PanZ(N45A)-His is “binds”.

For orientation: stoichiometry N means the number of molecules, sites or subunits per partner or assembly.
